This note sets out measurements from patent publication US20030049796A1.

In this assay the target is Recombinant active caspase-9 (catalytic domain) (mammalian) (UniProt P55211). Nature of the assay: cell-based or functional assay.
Sequence of UniProt P55211 (P55211 139-416 limits assumed): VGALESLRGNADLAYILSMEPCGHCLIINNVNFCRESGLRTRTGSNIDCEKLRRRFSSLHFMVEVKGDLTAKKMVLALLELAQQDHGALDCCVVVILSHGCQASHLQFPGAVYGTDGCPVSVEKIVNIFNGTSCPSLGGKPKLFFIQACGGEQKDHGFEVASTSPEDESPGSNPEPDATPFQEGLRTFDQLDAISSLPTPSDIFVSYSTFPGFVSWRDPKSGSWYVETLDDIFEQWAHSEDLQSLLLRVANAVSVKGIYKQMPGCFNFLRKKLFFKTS

For “GST-BmIAP (recombinant purified Bombyx mori inhibitor of apoptosis protein, glutathione S-transferase fusion)”, the caspase-9 activity: AFC release from Ac-LEHD-AFC (100 uM); 0.2 uM caspase-9, 0.2-1.6 uM BmIAP, 37 C (fold molar excess) came to 8.
